Target: ALK F1174L, human (human) (UniProt Q9UM73)
Experiment: flow cytometry, SY5Y cells stained with isotype control

Substance: isotype control (antibody)
- mean fluorescence intensity (MFI): 90

From patent US20150132317A1
